In PMC7102498 one finds binding data, which are given here for one sequence.

The data set addresses T1, QseB (Escherichia coli ECDCM2 (clinical bovine mastitis isolate)) (UniProt P52076).
T1 sequence: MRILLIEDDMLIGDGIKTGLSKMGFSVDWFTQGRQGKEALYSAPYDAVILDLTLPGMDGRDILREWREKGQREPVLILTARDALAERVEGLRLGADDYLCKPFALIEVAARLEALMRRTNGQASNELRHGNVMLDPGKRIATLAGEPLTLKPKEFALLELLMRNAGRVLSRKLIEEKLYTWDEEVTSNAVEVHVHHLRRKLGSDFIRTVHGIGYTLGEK
The experiment in a line: EMSA.

In the case of “ATGTTCGTGAATTTACAGGCGTTAGATTTACATACATTTGTGAATGTATGTACCATAGCACGACGATAATATAAACGCAGCAATGGGTTTATTAACTTTTGACCATTGACCAATTTGAAATCGGACACTCGAGGTTTACAT (double strand) [p-acrA promoter]”, the binding entry was “no binding”.
